How the values were obtained:
Test in all cases: FP
[1] = target: RP2, fluorescein-labelled reference peptide from the N-terminal extension of the RHO GTPase WRCH1/RHOU (human, UniProt Q7L0Q8, fluorescein (FITC) label, position not stated)
[2] = target: RP1, fluorescein-labelled reference peptide, a SOS1 derivative encompassing part of P3 (human, UniProt Q07889, fluorescein (FITC) label, position not stated)
[3] = target: P7, fluorescein-labelled proline-rich peptide from the SOS1 proline-rich domain (human, UniProt Q07889, fluorescein (FITC) label, position not stated)
[4] = target: P2, fluorescein-labelled proline-rich peptide from the SOS1 proline-rich domain (human, UniProt Q07889, fluorescein (FITC) label, position not stated)
[5] = target: P4, fluorescein-labelled proline-rich peptide from the SOS1 proline-rich domain (human, UniProt Q07889, fluorescein (FITC) label, position not stated)
[6] = target: P9, fluorescein-labelled proline-rich peptide from the SOS1 proline-rich domain (human, UniProt Q07889, fluorescein (FITC) label, position not stated)
[7] = target: P3, fluorescein-labelled proline-rich peptide from the SOS1 proline-rich domain (human, UniProt Q07889, fluorescein (FITC) label, position not stated)

Kd [1]	Kd [2]	Kd [3]	Binder	other results
2.5 µM	24.6 µM	–	NCK1-3, third SH3 domain of NCK1, GST cleaved (domain or fragment) QVLHVVQALYPFSSSNDEELNFEKGDVMDVIEKPENDPEWWKCRKINGMVGLVPKNYVTVMQN	–
–	2 µM	–	NCK1-2 SH3 domain, GST cleaved (domain or fragment) DLNMPAYVKFNYMAEREDELSLIKGTKVIVMEKCSDGWWRGSYNGQVGWFPSNYVTEEGD	–
–	–	58.5 µM	DLG2 SH3 domain, GST cleaved (domain or fragment) KRSLYVRAMFDYDKSKDSGLPSQGLSFKYGDILHVINASDDEWWQARRVMLEGDSEEMGVIPSKRRVERKE	–
48 µM	–	12 µM	BIN1 SH3 domain, GST cleaved (domain or fragment) GFMFKVQAQHDYTATDTDELQLKAGDVVLVIPFQNPEEQDEGWLMGVKESDWNQHKELEKCRGVFPENFTERVP	Kd [6]: 47 µM

Second part, the binder before the results:

Binder	Kd [1]	Kd [2]	Kd [3]	other results
ABI1 SH3 domain, GST cleaved (domain or fragment) NYIEKVVAIYDYTKDKDDELSFMEGAIIYVIKKNDDGWYEGVCNRVTGLFPGNYVESIMH	–	–	–	Kd [4]: 60.7 µM; Kd [5]: 24.6 µM
ABL2 SH3 domain, GST cleaved (domain or fragment) SDPNLFVALYDFVASGDNTLSITKGEKLRVLGYNQNGEWSEVRSKNGQGWVPSNYITPVNS	–	11 µM	67.3 µM	Kd [5]: 125 µM
ARHGAP12 SH3 domain, GST cleaved (domain or fragment) PGQVYIEVEYDYEYEAKDRKIVIKQGERYILVKKTNDDWWQVKPDENSKAFYVPAQYVKEVTR	15.5 µM	16.7 µM	–	Kd [7]: 13.8 µM
ARHGEF30 (Obscurin/OBSCN) SH3 domain, GST cleaved (domain or fragment) EIFDIYVVTADYLPLGAEQDAITLREGQYVEVLDAAHPLRWLVRTKPTKSSPSRQGWVSPAYLDRRLK	–	–	8.9 µM	–

— PMC10814857 (2024)
